In general, Kd refers to a measure of binding affinity in units of concentration. For orientation: koff means a measure of how fast the partners let go of each other. Broadly, the kon is the second-order rate constant of association.

This note sets out measurements from patent publication US20060159695A1.

Test [1] deals with RSV F protein (A2 strain) G438A (human RSV, A2 strain) (UniProt P03420). The test is described as follows: cell ELISA, 293T cells expressing F. A general note: In an ELISA, binding on a coated surface is turned into a signal by an enzyme label.
Test [2] concerns the target RSV F protein (A2 strain) V447A (human RSV, A2 strain) (UniProt P03420). The test is described as follows: cell ELISA, 293T cells expressing F.
For test [3], the target named is RSV F protein (A2 strain) T434S (human RSV, A2 strain) (UniProt P03420). The test is described as follows: cell ELISA, 293T cells expressing F.
The target in test [4] is RSV F protein (A2 strain) K272Q (human RSV, A2 strain) (UniProt P03420). The test is described as follows: cell ELISA, 293T cells expressing F.
In test [5] the target is Wild-type RSV F protein (subgroup A, A2 strain) (human RSV, A2 strain) (UniProt P03420). The test is described as follows: cell ELISA, 293T cells expressing F.
In test [6] the target is RSV F protein (A2 strain) D486N (human RSV, A2 strain) (UniProt P03420). The test is described as follows: cell ELISA, 293T cells expressing F.
In test [7] the target is RSV F protein (A2 strain) K433R (human RSV, A2 strain) (UniProt P03420). The test is described as follows: cell ELISA, 293T cells expressing F.
Test [8] deals with RSV F protein (A2 strain) S436T (human RSV, A2 strain) (UniProt P03420). The test is described as follows: cell ELISA, 293T cells expressing F.
Test [9] concerns the target RSV F protein (A2 strain) N437D (human RSV, A2 strain) (UniProt P03420). The test is described as follows: cell ELISA, 293T cells expressing F.
In test [10] the target is RSV F protein (A2 strain) I432T (human RSV, A2 strain) (UniProt P03420). The test is described as follows: cell ELISA, 293T cells expressing F.
The target in test [11] is RSV F protein (A2 strain) K272N (human RSV, A2 strain) (UniProt P03420). The test is described as follows: cell ELISA, 293T cells expressing F.
For test [12], the target named is RSV F protein (A2 strain) I432Q (human RSV, A2 strain) (UniProt P03420). The test is described as follows: cell ELISA, 293T cells expressing F.
In test [13] the target is RSV F protein (A2 strain) K433N (human RSV, A2 strain) (UniProt P03420). The test is described as follows: cell ELISA, 293T cells expressing F.
Test [14] deals with RSV F protein (A2 strain) K427Q (human RSV, A2 strain) (UniProt P03420). The test is described as follows: cell ELISA, 293T cells expressing F.
Test [15] has as its target RSV F protein (A2 strain) R429K (human RSV, A2 strain) (UniProt P03420). The test is described as follows: cell ELISA, 293T cells expressing F.
The target in test [16] is RSV F protein (A2 strain) I432L (human RSV, A2 strain) (UniProt P03420). The test is described as follows: cell ELISA, 293T cells expressing F.
For test [17], the target named is RSV F protein (A2 strain) F435Y (human RSV, A2 strain) (UniProt P03420). The test is described as follows: cell ELISA, 293T cells expressing F.
The target of test [18] is RSV F protein (A2 strain) K433L (human RSV, A2 strain) (UniProt P03420). The test is described as follows: cell ELISA, 293T cells expressing F.
The target of test [19] is RSV F protein (A2 strain) K433T (human RSV, A2 strain) (UniProt P03420). The test is described as follows: cell ELISA, 293T cells expressing F.
In test [20] the target is RSV F protein (A2 strain) S436F (human RSV, A2 strain) (UniProt P03420). The test is described as follows: cell ELISA, 293T cells expressing F.
Test [21] concerns the target RSV F protein (A2 strain) F488L (human RSV, A2 strain) (UniProt P03420). The test is described as follows: cell ELISA, 293T cells expressing F.
Test [22] has as its target RSV F protein (A2 strain) K427D (human RSV, A2 strain) (UniProt P03420). The test is described as follows: cell ELISA, 293T cells expressing F.
Test [23] addresses RSV F protein (A2 strain) R429S (human RSV, A2 strain) (UniProt P03420). The test is described as follows: cell ELISA, 293T cells expressing F.
Test [24] has as its target RSV F protein (A2 strain) N428D (human RSV, A2 strain) (UniProt P03420). The test is described as follows: cell ELISA, 293T cells expressing F.
The target of test [25] is Wild-type RSV F protein (subgroup B, 18537 strain) (human RSV, 18537 strain) (UniProt P13843). The test is described as follows: cell ELISA, 293T cells expressing F.
In test [26] the target is RSV F protein (A2 strain) F488Y (human RSV, A2 strain) (UniProt P03420). The test is described as follows: cell ELISA, 293T cells expressing F.
The target in test [27] is RSV F protein (A2 strain) F483Y (human RSV, A2 strain) (UniProt P03420). The test is described as follows: cell ELISA, 293T cells expressing F.
Test [28] deals with RSV F protein (A2 strain) K433S (human RSV, A2 strain) (UniProt P03420). The test is described as follows: cell ELISA, 293T cells expressing F.
Test [29] concerns the target RSV F protein (A2 strain) K427E (human RSV, A2 strain) (UniProt P03420). The test is described as follows: cell ELISA, 293T cells expressing F.
The target in test [30] is RSV F protein (A2 strain) S275F (human RSV, A2 strain) (UniProt P03420). The test is described as follows: cell ELISA, 293T cells expressing F.
For test [31], the target named is RSV F protein (A2 strain) K433D (human RSV, A2 strain) (UniProt P03420). The test is described as follows: cell ELISA, 293T cells expressing F.
The target in test [32] is RSV F protein (A2 strain) I431A (human RSV, A2 strain) (UniProt P03420). The test is described as follows: cell ELISA, 293T cells expressing F.
The target in test [33] is RSV F protein (A2 strain) F483L (human RSV, A2 strain) (UniProt P03420). The test is described as follows: cell ELISA, 293T cells expressing F.
Test [34] concerns the target RSV F protein (A2 strain) K272M (human RSV, A2 strain) (UniProt P03420). The test is described as follows: cell ELISA, 293T cells expressing F.
Test [35] has as its target RSV F protein (A2 strain) G430A (human RSV, A2 strain) (UniProt P03420). The test is described as follows: cell ELISA, 293T cells expressing F.
Test [36] concerns the target RSV F protein (A2 strain) N428Q (human RSV, A2 strain) (UniProt P03420). The test is described as follows: cell ELISA, 293T cells expressing F.
Test [37] addresses RSV F protein (A2 strain) K272T (human RSV, A2 strain) (UniProt P03420). The test is described as follows: cell ELISA, 293T cells expressing F.
Test [38] concerns the target RSV F protein (A2 strain) I431L (human RSV, A2 strain) (UniProt P03420). The test is described as follows: cell ELISA, 293T cells expressing F.
Test [39] addresses RSV F protein (A2 strain) C422S (human RSV, A2 strain) (UniProt P03420). The test is described as follows: cell ELISA, 293T cells expressing F.
The target of test [40] is RSV F protein (A2 strain) K433Q (human RSV, A2 strain) (UniProt P03420). The test is described as follows: cell ELISA, 293T cells expressing F.
In test [41] the target is RSV F protein (A2 strain) T400A (human RSV, A2 strain) (UniProt P03420). The test is described as follows: cell ELISA, 293T cells expressing F.
Test [42] has as its target RSV F protein on human RSV virus (Long strain) (human RSV, Long strain) (UniProt P12568). The test is described as follows: cell-based or functional assay.
The target in test [43] is soluble, extracellular domain of recombinantly expressed RSV F protein (human RSV). The test is described as follows: SPR (BIAcore 3000), F protein amine-coupled to CM5 chip. On the technique in general: SPR reads the build-up and loss of mass on a sensor chip optically.

Turning to chimeric 101F mAb (antibody), the % mAb binding relative to wild-type in test [1] was found to be 9.2%.
For mAb19 (antibody), the % mAb binding relative to wild-type in test [2] was found to be 62.7%; in test [3] it was 84.9%; in test [4], 88.7%; in test [5] it was 99.9%; in test [6], 30.7%; in [7] it was 23.1%. Further, the % mAb binding relative to wild-type was determined as 85.8% in test [8]; 33.2% in test [9]; 170% in test [10]; 62.3% in test [11]; 57.9% in [12]; 28.7% in test [13]. The % mAb binding relative to wild-type in test [14] is 155%; in test [15] it was 11.2%; in [16] it was 64.4%; in test [17], 9.2%; in test [18], 24.5%; in test [19], 64.4%. For the same substance, the % mAb binding relative to wild-type in test [20] is 163%; in [21] it was 40%; in [22], -12.7%; in [23], 3.9%; in [24] it was 121%; in test [25], 105%. Also, the % mAb binding relative to wild-type in test [26] is 56%; in test [27], 141%; in test [28], 112%; in test [29], 68.7%; in test [30] it was 31.7%; in test [31], 1.6%. The % mAb binding relative to wild-type amounted to 81.8% in test [32]; 19% in test [1]; 101% in test [33]; 100% in [34]; 0.15% in test [35]; 194% in test [36]. Besides, the % mAb binding relative to wild-type came out at 68% in [37]; 65.5% in [38]; 194% in [39]; 47.4% in test [40]; 161% in test [41].
Consider palivizumab (antibody), for which the RSV neutralization IC50 (Palivizumab) in test [42] worked out at 0.1 µg/mL. Besides, the Kd in [43] is 1.1 nM.
For palivizumab Fab, in [42], the RSV neutralization IC50 (Palivizumab Fab) was determined as 3.2 µg/mL. Further, in [43], the Kd came out at 1.5 nM, the koff is 0.0011 s⁻¹ and the kon turned out to be 720000 M⁻¹ s⁻¹.
